Laboratory results: article PMC4966845 (mAbs, 2016)
Substitutions are numbered along the chain they refer to. Like-named read-outs stand apart in the source and are kept apart here. Blank lines part the entries; values can stand above or below the binder they belong to.

Legend:
[1] = target: T1, human IGF-1R extracellular domain (Homo sapiens, UniProt P08069); assay: SPR
[2] = target: T2, IGF-1R on tumor cells (A549, TC-71) (Homo sapiens (A549, TC-71 cells), UniProt P08069); assay: flow cytometry on cells
[3] = target: T1, human IGF-1R extracellular domain; assay: SPR; remark: listed apart in the source
[4] = target: T2, IGF-1R on tumor cells (A549, TC-71); assay: flow cytometry on cells; remark: listed apart in the source

T1 sequence (P08069 741-935): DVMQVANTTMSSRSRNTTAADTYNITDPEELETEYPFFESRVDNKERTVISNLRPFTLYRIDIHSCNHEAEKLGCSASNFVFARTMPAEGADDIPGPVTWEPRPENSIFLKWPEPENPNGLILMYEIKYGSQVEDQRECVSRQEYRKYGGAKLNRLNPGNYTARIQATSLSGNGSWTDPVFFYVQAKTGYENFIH
T2 sequence (P08069 31-1367): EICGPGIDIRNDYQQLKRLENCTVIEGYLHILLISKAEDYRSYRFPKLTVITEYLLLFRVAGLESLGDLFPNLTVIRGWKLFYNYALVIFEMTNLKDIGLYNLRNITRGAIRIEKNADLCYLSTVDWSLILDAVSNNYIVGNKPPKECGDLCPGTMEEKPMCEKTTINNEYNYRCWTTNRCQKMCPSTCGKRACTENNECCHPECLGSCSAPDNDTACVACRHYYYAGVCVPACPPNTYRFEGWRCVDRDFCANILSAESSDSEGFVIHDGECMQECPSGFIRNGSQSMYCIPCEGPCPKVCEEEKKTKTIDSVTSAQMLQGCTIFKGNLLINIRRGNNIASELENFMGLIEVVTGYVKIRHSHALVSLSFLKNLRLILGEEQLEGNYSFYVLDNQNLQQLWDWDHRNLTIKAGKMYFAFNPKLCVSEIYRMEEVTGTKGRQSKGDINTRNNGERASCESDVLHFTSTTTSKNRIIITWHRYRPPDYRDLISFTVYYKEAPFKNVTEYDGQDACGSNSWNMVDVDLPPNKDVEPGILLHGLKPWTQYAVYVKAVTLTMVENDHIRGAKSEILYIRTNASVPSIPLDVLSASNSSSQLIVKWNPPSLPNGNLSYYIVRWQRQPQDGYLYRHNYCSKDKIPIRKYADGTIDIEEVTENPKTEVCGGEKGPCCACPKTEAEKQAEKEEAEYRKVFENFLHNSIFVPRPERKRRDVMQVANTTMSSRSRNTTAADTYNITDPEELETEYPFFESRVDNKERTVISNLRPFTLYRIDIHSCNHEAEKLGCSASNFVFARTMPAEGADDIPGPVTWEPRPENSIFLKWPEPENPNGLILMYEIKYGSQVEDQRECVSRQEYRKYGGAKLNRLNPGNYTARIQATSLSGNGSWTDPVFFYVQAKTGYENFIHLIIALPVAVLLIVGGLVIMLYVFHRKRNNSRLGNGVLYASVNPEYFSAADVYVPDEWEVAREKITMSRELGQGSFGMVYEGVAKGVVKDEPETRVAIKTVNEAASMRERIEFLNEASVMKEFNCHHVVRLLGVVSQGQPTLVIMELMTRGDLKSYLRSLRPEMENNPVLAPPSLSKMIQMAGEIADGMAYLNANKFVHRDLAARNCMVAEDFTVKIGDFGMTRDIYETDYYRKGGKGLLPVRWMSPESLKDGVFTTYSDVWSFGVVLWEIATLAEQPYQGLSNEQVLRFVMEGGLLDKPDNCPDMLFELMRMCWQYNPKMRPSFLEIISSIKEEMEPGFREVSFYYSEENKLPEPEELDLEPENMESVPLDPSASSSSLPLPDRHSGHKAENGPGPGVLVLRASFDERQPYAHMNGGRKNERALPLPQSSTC

Kd [1]: 1.47 nM | koff [1]: 0.00025 s⁻¹ | kon [1]: 170000 M⁻¹ s⁻¹
B1: F13B5 Fab fragment (Fab, V domains shown)
VH: QVELVESGGGVVQPGRSQRLSCAASGFTFSSYGMHWVRQAPGKGLEWVAIIWFDGSSTYYADSVRGRFTISRDNSKNTLYLQMNSLRAEDTAVYFCARELGRRYFDLWGRGTLVSVSS
VL: EIVLTQSPATLSLSPGERATLSCRASQSVSSYLAWYQQKPGQAPRLLIYQASKRATGIPARFSGSGSGTDFTLTISSLEPEDFAVYYCQQRSKYPPWTFGQGTKVESK

IC50 [2]: ~1 nM | Kd [3]: 5 nM
B2: R1507, bivalent monospecific anti-IGF-1R antibody (antibody, V domains shown)
VH: B1 VH
VL: B1 VL with Q50D, Y94W

fold reduction of binding against bivalent R1507 [4]: ~10 fold | fold reduction of binding against bivalent R1507 [2]: ~34 fold | Kd [1]: 18 nM | koff [1]: 0.00271 s⁻¹ | kon [1]: 153000 M⁻¹ s⁻¹
B3: R1507 Fab fragment (Fab, V domains shown)
VH: B1 VH
VL: B1 VL with Q50D, Y94W
